Measurements published in patent US20230192765A1, “PEPTIDES TARGETING SHP2 AND USES THEREOF” (UNIVERSITÀ DEGLI STUDI DI ROMA "TOR VERGATA", priority 2020, published 2023).
[ ]: non-standard residue; d: D form. CF = 5,6-carboxyfluorescein, N-terminal label; pY = N[C@@H](Cc1ccc(OP(=O)(O)O)cc1)C(=O)O

How the values were obtained:
[1] = target: N-SH2 domain of SHP2 (residues 2-111), recombinant (human) (UniProt Q06124); test: fluorescence anisotropy direct binding, labelled peptide titrated with protein
[2] = target: C-SH2 domain of SHP2 (residues 109-217), recombinant (human) (UniProt Q06124); test: fluorescence anisotropy direct binding
[3] = target: C-SH2 domain of SHP2 (residues 109-217), recombinant (human) (UniProt Q06124); test: fluorescence anisotropy direct binding, labelled peptide titrated with protein
[4] = system: protein array of 97 human SH2 domains; test: SH2 domain microarray; assay type: binding; settings: peptide 0.5, 5.0, 50 nM
Description: (§1) The microarray experiment was conducted by the Protein Array and Analysis Core at the MD Anderson Cancer Center (University of Texas, USA), as previously described [Roth 2019]. Briefly, a library of SH2 domains [Huang 2008] was expressed as GST fusion in E. coli and purified on glutathione-sepharose beads. The domains were spotted onto nitrocellulose-coated glass slides (Oncyte Avid slides, Grace Bio-Labs) using a pin arrayer [Espejo 2002]. Each domain was spotted in duplicate.

N-SH2 domain of SHP1 = target: T1, N-SH2 domain of SHP1 (Homo sapiens, UniProt P29350); test: SH2 domain microarray, SHP1; assay type: binding; settings: peptide 0.5, 5.0, 50 nM
T1 construct: host or cells: E. coli
T1 sequence (P29350 4-100 limits assumed): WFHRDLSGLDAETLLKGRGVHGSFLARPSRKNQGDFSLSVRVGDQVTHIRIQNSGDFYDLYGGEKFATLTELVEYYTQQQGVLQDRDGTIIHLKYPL
Description: as §1

N-SH2 domain of SHP2 [5] = target: T2, N-SH2 domain of SHP2 (Homo sapiens, UniProt Q06124); test: Fluorescence anisotropy direct binding assay, N-SH2 domain; settings: N-SH2 domain; direct binding
T2 construct: constructs of the N-SH2 (residues 2-111), C-SH2 (109-217) and PTP (212-528) domains; His6 (esaHis); made in house; host or cells: E. coli (DE3) Rosetta2
T2 sequence (Q06124 2-111): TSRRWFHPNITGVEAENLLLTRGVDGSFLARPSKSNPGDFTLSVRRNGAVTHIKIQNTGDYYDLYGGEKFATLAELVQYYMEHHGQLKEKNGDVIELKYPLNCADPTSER
Description: Anisotropy measurements were carried out using a Horiba Fluoromax 4 spectrofluorimeter.
For the binding assays, the requested peptide amount (1 nM or 0.1 nM) was diluted in buffer (HEPES 10 mM, NaCl 150 mM, EDTA 1 mM, TCEP 1 mM, fluorescence buffer henceforth) and its anisotropy signal was recorded. The peptide was then titrated with increasing protein amounts, until the anisotropy signal reached a plateau at its maximum value, or up to a protein concentration where protein aggregation and consequent light scattering affected the anisotropy values (usually above 1 µM). The measurements of CF-labeled peptides were carried out using an excitation wavelength of 470 nm and collecting the anisotropy values at an emission wavelength of 520 nm. A 495 nm emission filter was used. For the Cy3-labeled peptides, excitation and emission wavelengths of 520 and 560 nm were used.
The Kd values were obtained fitting the data with the following equation, described in Van der Weert 2011, which avoids the need for the commonly used (but often unjustified) approximation of the concentration of unbound protein with the total concentration:
Here, [P]T and [L]T are the total protein and ligand concentrations, while r, ro and rmax are the anisotropy values at a given protein concentration, in the absence of protein and when the peptide is completely bound, respectively.

N-SH2 domain of SHP2 [6] = target: T2, N-SH2 domain of SHP2; test: Fluorescence anisotropy displacement assay; assay type: binding; settings: [CF-P9]=1.0 nM; [N-SH2]= 40 nM; relative to P9
Description: The displacement assays were carried out with the same experimental settings. In this case, the labeled peptide-protein complex was titrated with increasing amounts of the unlabeled peptide, following the decrease in anisotropy. Measurements were carried out at the same CF-peptide concentration used for the corresponding binding experiments.
The affinity of unlabeled peptides was determined by competition experiments, in which a sample with fixed total protein and ligand concentrations ([P]T and [L]T) was titrated with the inhibitor, causing displacement of the fluorescent peptide and a decrease in anisotropy.
where [I]T is the total concentration of the peptide causing the displacement, and rfin is the anisotropy corresponding to total displacement, while in this case r0 is the starting anisotropy, in the absence of displacing peptide.
Successively, the dissociation constant of the unlabeled peptide (Ki) was calculated from the know values of IC50, Kd, [P]T and [L]T, as described here below.
In this way, Ki is expressed as a function of the known quantities IC50, Kd, [P]T and [L]T, without any approximation.

[7] = system: T3, GAB1 Y657 phosphopeptide (DKQVEpYLDLDL)
T3 sequence: DKQVEYLDLDL

[8] = system: T4, p190A/RhoGAP Y1105 phosphopeptide (EEENIpYSVPHD)
T4 sequence: EEENIYSVPHD

[9] = system: T5, BTAM peptide (PTPNS1 bisphosphotyrosyl-containing motif, with 4 N-terminal G residues)
T5 sequence: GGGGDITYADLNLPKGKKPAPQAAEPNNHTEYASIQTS

P8 (LN-pY-IDLDL) = system: T6, P8 (LN-pY-IDLDL)
T6 sequence: LNYIDLDL

P8W5 (LN-pY-IDLDW) = system: T7, P8W5 (LN-pY-IDLDW)
T7 sequence: LNYIDLDW

[10] = system: T8, EGFR Y1016 phosphopeptide (VDADEpYLIPQQ)
T8 sequence: VDADEYLIPQQ

[11] = target: T9, N-SH2 domain of SHP2 (residues 2-111), recombinant (human, UniProt Q06124 2-111); test: fluorescence anisotropy direct binding, labelled peptide titrated with protein
T9 construct: range 2-111; Expressed in E. coli from pET-26b and purified on Ni-NTA
T9 sequence (looked up): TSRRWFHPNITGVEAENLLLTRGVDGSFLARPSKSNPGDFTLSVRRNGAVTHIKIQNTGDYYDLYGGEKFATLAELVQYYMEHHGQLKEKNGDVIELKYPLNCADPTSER

[12] = target: T9, N-SH2 domain of SHP2 (residues 2-111), …; test: fluorescence anisotropy direct binding
Description: For the binding assays, the requested peptide amount (1 nM or 0.1 nM) was diluted in buffer (HEPES 10 mM, NaCl 150 mM, EDTA 1 mM, TCEP 1 mM, fluorescence buffer henceforth) and its anisotropy signal was recorded. The peptide was then titrated with increasing protein amounts, until the anisotropy signal reached a plateau at its maximum value, or up to a protein concentration where protein aggregation and consequent light scattering affected the anisotropy values (usually above 1 µM). The measurements of CF-labeled peptides were carried out using an excitation wavelength of 470 nm and collecting the anisotropy values at an emission wavelength of 520 nm. […] For the Cy3-labeled peptides, excitation and emission wavelengths of 520 and 560 nm were used.

[13] = target: T10, N-SH2 domain of SHP1, GST fusion on the SH2 domain microarray (human, UniProt P29350 1-106); test: SH2 domain microarray (GST fusions on nitrocellulose slides), Cy3 fluorescence
T10 construct: domain: N-SH2 domain; Array of 97 human SH2 domains; not shown: GST fusion partner
T10 sequence (looked up): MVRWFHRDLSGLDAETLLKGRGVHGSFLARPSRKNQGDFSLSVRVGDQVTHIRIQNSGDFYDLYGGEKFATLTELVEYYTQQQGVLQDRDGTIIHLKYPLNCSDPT

Q: For CF-P9E4W5 (CF-GLN-pY-IDLEW) (peptide), which Kd [1] is on record?
A: The Kd was 8.2 nM.

Q: Which fold lower affinity than for the N-SH2 domain [2] does the source give for CF-P9W5 (CF-GLN-pY-IDLDW) (peptide) here?
A: The fold lower affinity than for the N-SH2 domain was 1000 fold.

Q: What about the Kd [3] of the same molecule?
A: Its Kd is 4200 nM.

Q: And the Kd [1]?
A: The Kd was 4.6 nM.

Q: Cy3-GLN-pY-IDLDW [Cy3-P9W5] was tested. Which “binding on SH2 domain array” value [4] did it give?
A: Its value is “significant binding was observed only with the N-SH2 domain of SHP2”.

Q: What about the “binding to N-SH2 domain of SHP1” value (N-SH2 domain of SHP1) of the same molecule?
A: The value was “negligible”.

Q: What about the Kd (N-SH2 domain of SHP2 [5]) of the same molecule?
A: The Kd was 23 ± 2 nM.

Q: With “N-pY-IDLDL (Ac-N[pY]IDLDL-NH2; SMILES CC[C@H](C)[C@H](NC(=O)[C@H](Cc1ccc(OP(=O)(O)O)cc1)NC(=O)[C@H](CC(N)=O)NC(C)=O)C(=O)N[C@@H](CC(=O)O)C(=O)N[C@@H](CC(C)C)C(=O)N[C@@H](CC(=O)O)C(=O)N[C@@H](CC(C)C)C(N)=O) [Peptide P7]” as the molecule, how does the “effect of sequence length on the binding affinity” value (N-SH2 domain of SHP2 [6]) read?
A: Its value is “drastic perturbation of complex stability”.

Q: Which results are given for “SHP2Δ104 (SHP2 construct lacking the N-SH2 domain, residues 105-528)”?
A: dephosphorylation of the phosphopeptide (malachite green phosphate release) [7]: dephosphorylation was indeed observed, although to a lower extent than for other phosphopeptides; dephosphorylation of the phosphopeptide (malachite green phosphate release) [8]: dephosphorylation was indeed observed, although to a lower extent than for other phosphopeptides; dephosphorylation of the phosphopeptide (malachite green phosphate release) [9]: dephosphorylation was indeed observed, although to a lower extent than for other phosphopeptides; dephosphorylation of the phosphopeptide (malachite green phosphate release) (P8 (LN-pY-IDLDL)): dephosphorylation was indeed observed, although to a lower extent than for other phosphopeptides; dephosphorylation of the phosphopeptide (malachite green phosphate release) (P8W5 (LN-pY-IDLDW)): dephosphorylation was indeed observed, although to a lower extent than for other phosphopeptides; dephosphorylation of the phosphopeptide (malachite green phosphate release) [10]: dephosphorylation was indeed observed, although to a lower extent than for other phosphopeptides

B1: CF-P9Y0 (CF-GLN-Y-IDLDL), unphosphorylated analog of the labeled IRS-1 pY1172 peptide (peptide)
peptide: {CF}-GLNYIDLDL-NH2
Q: Which results are given for B1?
A: Kd [11]: 6600 nM; fold lower affinity than the phosphorylated peptide CF-P9 [12]: ~100 fold

B2: Cy3-P9W5 (Cy3-GLN-pY-IDLDW) (peptide)
peptide: XGLNYIDLDW
modifications: phosphotyrosine (pY) at position 4; N-terminal Cyanine 3 carboxylic acid (Cy3); C-terminal amide
Q: Which results are given for B2?
A: binding result [13]: no binding (tested: peptide at 0.5, 5.0 and 50 nM); Kd [1]: 23 nM

B3: CF-P9 (CF-GLN-pY-IDLDL), fluorescently labeled IRS-1 pY1172 peptide analog (peptide)
peptide: {CF}-GLN[pY]IDLDL-NH2
Q: For B3, which Kd [11] is on record?
A: The Kd was 53 nM.
